Reference: patent publication US20170246263A1 (SHIRE HUMAN GENETIC THERAPIES, published 2017)

Columns and labels:
[1] = molecular target: T1, recombinant 6xHistidine tagged human SORT1 (human, UniProt Q99523 78-755); assay: SPR; SORT1-6xHis captured on anti-His mAb, Naglu-SPP 0.625-20 nM as analyte; value from the fit table under the sensorgrams
T1 construct: Captured on the chip by an anti-His mAb; also called SORT1-6xHis; Sortilin-6xHis
T1 sequence: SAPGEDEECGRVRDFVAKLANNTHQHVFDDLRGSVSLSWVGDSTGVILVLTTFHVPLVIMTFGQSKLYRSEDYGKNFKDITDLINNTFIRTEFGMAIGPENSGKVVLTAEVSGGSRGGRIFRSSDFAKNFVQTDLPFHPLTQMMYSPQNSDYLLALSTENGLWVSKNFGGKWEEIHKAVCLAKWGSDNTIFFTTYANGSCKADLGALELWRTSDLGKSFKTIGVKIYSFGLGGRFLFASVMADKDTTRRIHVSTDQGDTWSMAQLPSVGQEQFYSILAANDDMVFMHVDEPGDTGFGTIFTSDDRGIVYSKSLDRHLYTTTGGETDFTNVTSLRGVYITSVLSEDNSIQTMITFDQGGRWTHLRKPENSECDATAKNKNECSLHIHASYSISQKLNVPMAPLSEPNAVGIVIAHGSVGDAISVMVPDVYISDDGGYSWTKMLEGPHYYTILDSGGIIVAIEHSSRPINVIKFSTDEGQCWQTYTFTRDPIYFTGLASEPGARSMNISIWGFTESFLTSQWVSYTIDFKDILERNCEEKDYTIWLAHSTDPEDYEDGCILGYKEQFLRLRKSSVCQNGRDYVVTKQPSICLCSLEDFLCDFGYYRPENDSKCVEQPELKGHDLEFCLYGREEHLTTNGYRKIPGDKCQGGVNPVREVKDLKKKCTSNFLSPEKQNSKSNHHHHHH
Method: (§1) Briefly, anti-His mAb (capturing molecule) was diluted in immobilization buffer and bound on the dextran surface of a SPR sensor chip housed in a microfluidic system. […] As the solution moved over the SPR sensor chip, the analyte bound to the capture complex and an increase in SPR signal (expressed in response units, RU) was observed. Finally, a solution without analyte was injected into the microfluidic device to detach bound […] from the capture complex, resulting in a decrease in SPR signal. The detailed experimental conditions are described in Table 6 below.

[2] = molecular target: T2, SORT1 on SORT1 overexpressing cells (Homo sapiens (Human), UniProt Q99523 78-831); assay: cell-based or functional assay
T2 sequence: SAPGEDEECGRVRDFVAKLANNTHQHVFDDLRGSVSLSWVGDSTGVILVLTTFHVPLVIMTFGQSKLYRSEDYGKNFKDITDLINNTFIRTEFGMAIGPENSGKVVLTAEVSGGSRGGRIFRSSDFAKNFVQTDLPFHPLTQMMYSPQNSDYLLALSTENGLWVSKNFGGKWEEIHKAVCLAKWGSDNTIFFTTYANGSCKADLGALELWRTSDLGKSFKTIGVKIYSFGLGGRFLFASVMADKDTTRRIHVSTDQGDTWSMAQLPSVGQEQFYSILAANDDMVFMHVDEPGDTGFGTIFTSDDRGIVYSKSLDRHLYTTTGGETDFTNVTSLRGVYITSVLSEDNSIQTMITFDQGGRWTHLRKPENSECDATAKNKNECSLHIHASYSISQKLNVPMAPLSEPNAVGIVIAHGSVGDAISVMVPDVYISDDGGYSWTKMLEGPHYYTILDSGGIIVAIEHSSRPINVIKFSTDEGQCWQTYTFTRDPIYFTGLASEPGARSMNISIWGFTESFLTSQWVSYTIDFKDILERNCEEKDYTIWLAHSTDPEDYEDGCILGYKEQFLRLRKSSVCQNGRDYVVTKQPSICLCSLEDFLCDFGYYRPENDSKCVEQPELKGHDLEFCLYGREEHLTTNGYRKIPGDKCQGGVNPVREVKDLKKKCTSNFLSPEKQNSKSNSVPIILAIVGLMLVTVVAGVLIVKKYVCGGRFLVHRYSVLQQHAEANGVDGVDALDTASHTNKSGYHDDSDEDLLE

[3] = molecular target: T1, recombinant 6xHistidine tagged human …; assay: SPR; SORT1-6xHis captured by anti-His mAb, Naglu-SPP as analyte 0-20 nM
Method: as §1

[4] = molecular target: T2, SORT1 on SORT1 overexpressing cells; assay: binding/uptake assay on SORT1 overexpressing cells; intracellular Naglu activity against fusion protein concentration; cellular uptake assay on SORT1 overexpressing cells, read as intracellular Naglu activity
Method: A cell line was established overexpressing SORT1, using standard technologies known in the art. […] After a specified period of time, the supernatant was removed and the cells were washed repeatedly. Then, cells were lysed and each sample was assayed for Naglu enzyme activity.

B1: Naglu-SPP fusion protein (enzyme)
chain: DEAREAAAVRALVARLLGPGPAADFSVSVERALAAKPGLDTYSLGGGGAARVRVRGSTGVAAAAGLHRYLRDFCGCHVAWSGSQLRLPRPLPAVPGELTEATPNRYRYYQNVCTQSYSFVWWDWARWEREIDWMALNGINLALAWSGQEAIWQRVYLALGLTQAEINEFFTGPAFLAWGRMGNLHTWDGPLPPSWHIKQLYLQHRVLDQMRSFGMTPVLPAFAGHVPEAVTRVFPQVNVTKMGSWGHFNCSYSCSFLLAPEDPIFPIIGSLFLRELIKEFGTDHIYGADTFNEMQPPSSEPSYLAAATTAVYEAMTAVDTEAVWLLQGWLFQHQPQFWGPAQIRAVLGAVPRGRLLVLDLFAESQPVYTRTASFQGQPFIWCMLHNFGGNHGLFGALEAVNGGPEAARLFPNSTMVGTGMAPEGISQNEVVYSLMAELGWRKDPVPDLAAWVTSFAARRYGVSHPDAGAAWRLLLRSVYNCSGEACRGHNRSPLVRRPSLQMNTSIWYNRSDVFEAWRLLLTSAPSLATSPAFRYDLLDLTRQAVQELVSLYYEEARSAYLSKELASLLRAGGVLAYELLPALDEVLASDSRFLLGSWLEQARAAAVSEAEADFYEQNSRYQLTLWGPEGNILDYANKQLAGLVANYYTPRWRLFLEALVDSVAQGIPFQQHQFDKNVFQLEQAFVLSKQRYPSQPRGDTVDLAKKIFLKYYPRWVAGSWGAPGGGGGAAAAAGGGGGGAPGGGGGAAAAAGGGGGGAPGGGGGAAAAAGGGGGGAPQDRLDAPPPPAAPLPRWSGPIGVSWGLRAAAAGGAFPRGGRWRR
Kd [1]: 0.663 nM | koff [1]: 0.000708 s⁻¹ | kon [1]: 1.07e+06 M⁻¹ s⁻¹ | Kd (cellular uptake: Naglu activity in lysates of SORT1 overexpressing cells) [A] [2]: 155 nM | Kd [3]: ~0.66 nM | koff [3]: ~0.00071 s⁻¹ | kon [3]: ~1.1e+06 M⁻¹ s⁻¹ | Kd [4]: 155 nM

B2: Naglu-tPRGN fusion protein (enzyme)
chain: DEAREAAAVRALVARLLGPGPAADFSVSVERALAAKPGLDTYSLGGGGAARVRVRGSTGVAAAAGLHRYLRDFCGCHVAWSGSQLRLPRPLPAVPGELTEATPNRYRYYQNVCTQSYSFVWWDWARWEREIDWMALNGINLALAWSGQEAIWQRVYLALGLTQAEINEFFTGPAFLAWGRMGNLHTWDGPLPPSWHIKQLYLQHRVLDQMRSFGMTPVLPAFAGHVPEAVTRVFPQVNVTKMGSWGHFNCSYSCSFLLAPEDPIFPIIGSLFLRELIKEFGTDHIYGADTFNEMQPPSSEPSYLAAATTAVYEAMTAVDTEAVWLLQGWLFQHQPQFWGPAQIRAVLGAVPRGRLLVLDLFAESQPVYTRTASFQGQPFIWCMLHNFGGNHGLFGALEAVNGGPEAARLFPNSTMVGTGMAPEGISQNEVVYSLMAELGWRKDPVPDLAAWVTSFAARRYGVSHPDAGAAWRLLLRSVYNCSGEACRGHNRSPLVRRPSLQMNTSIWYNRSDVFEAWRLLLTSAPSLATSPAFRYDLLDLTRQAVQELVSLYYEEARSAYLSKELASLLRAGGVLAYELLPALDEVLASDSRFLLGSWLEQARAAAVSEAEADFYEQNSRYQLTLWGPEGNILDYANKQLAGLVANYYTPRWRLFLEALVDSVAQGIPFQQHQFDKNVFQLEQAFVLSKQRYPSQPRGDTVDLAKKIFLKYYPRWVAGSWGAPGGGGGAAAAAGGGGGGAPGGGGGAAAAAGGGGGGAPGGGGGAAAAAGGGGGGAPTKCLRREAPRWDAPLRDPALRQLL
notes: also called Naglu-tPGRN
Kd [4]: 392 nM
